Results from patent US20160200782A1 (MOERAE MATRIX, published 2016).

Experiments:
Assay in all cases: cell-based or functional assay
HIPK2(h) = HIPK2(h) (human, UniProt Q9H2X6 165-564, limits assumed)
BrSK2(h) = target: T1, BrSK2(h) (human, UniProt Q8IWQ3 1-736, limits assumed)
T1 sequence (looked up): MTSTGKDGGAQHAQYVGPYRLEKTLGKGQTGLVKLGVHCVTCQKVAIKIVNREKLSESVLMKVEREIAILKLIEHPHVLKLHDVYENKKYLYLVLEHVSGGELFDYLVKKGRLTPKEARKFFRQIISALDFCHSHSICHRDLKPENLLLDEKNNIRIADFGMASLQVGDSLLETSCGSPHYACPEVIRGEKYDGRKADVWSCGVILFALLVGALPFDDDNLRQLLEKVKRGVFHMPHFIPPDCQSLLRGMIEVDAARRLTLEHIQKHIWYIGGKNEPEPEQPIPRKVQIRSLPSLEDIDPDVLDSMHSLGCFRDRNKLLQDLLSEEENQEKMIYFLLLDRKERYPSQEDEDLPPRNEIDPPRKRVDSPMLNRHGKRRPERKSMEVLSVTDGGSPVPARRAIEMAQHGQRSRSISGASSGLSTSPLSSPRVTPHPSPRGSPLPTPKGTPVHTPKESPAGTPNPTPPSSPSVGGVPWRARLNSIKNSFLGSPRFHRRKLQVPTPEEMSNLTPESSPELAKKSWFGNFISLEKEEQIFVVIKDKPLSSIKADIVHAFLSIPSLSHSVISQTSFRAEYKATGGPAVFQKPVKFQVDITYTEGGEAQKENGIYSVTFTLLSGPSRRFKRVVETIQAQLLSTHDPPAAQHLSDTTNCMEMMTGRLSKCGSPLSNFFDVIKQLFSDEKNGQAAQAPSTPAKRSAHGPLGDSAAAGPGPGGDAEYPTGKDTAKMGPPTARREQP

Itk(h) = target: T2, Itk(h) (human, UniProt Q08881 1-620, limits assumed)
T2 sequence (looked up): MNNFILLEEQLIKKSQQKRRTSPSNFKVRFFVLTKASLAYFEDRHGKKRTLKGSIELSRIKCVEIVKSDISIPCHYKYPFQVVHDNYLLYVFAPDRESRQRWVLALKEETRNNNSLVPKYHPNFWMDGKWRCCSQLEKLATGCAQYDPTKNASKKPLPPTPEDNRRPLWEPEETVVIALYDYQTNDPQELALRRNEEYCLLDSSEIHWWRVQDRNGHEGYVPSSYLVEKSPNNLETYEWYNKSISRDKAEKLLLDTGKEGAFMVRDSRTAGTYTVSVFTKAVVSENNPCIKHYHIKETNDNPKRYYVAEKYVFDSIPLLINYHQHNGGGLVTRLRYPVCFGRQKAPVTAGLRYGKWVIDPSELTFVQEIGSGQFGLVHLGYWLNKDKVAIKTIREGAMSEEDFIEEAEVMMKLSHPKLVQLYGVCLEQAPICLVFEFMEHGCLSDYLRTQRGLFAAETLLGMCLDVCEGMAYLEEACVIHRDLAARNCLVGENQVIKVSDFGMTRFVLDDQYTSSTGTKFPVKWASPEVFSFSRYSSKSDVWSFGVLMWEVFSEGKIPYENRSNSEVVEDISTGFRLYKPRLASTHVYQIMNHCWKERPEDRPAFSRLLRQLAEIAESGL

Tec(h)activated = target: T3, Tec(h)activated (human, UniProt P42680 1-631, limits assumed)
T3 sequence (looked up): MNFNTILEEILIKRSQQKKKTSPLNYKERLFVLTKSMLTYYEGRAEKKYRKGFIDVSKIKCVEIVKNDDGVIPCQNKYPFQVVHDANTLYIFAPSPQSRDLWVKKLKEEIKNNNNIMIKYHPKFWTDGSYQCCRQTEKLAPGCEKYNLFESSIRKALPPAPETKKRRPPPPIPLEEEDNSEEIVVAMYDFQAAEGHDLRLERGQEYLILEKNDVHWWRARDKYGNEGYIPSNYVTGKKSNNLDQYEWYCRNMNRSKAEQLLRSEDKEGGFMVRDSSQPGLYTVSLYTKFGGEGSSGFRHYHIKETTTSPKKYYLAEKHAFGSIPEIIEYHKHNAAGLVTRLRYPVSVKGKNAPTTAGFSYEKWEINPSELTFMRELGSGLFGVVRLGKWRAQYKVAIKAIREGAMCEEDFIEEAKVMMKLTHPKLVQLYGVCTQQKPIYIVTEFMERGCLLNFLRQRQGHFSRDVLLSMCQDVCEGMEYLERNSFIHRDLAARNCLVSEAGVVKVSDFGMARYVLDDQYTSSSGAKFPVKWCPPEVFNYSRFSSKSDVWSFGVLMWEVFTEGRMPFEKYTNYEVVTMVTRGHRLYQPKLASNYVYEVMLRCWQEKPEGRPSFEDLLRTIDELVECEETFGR

Ab1(h) = Ab1(h) (human, UniProt P00519 27-1130, limits assumed)
Sequence of Ab1(h) (P00519 27-1130 limits assumed): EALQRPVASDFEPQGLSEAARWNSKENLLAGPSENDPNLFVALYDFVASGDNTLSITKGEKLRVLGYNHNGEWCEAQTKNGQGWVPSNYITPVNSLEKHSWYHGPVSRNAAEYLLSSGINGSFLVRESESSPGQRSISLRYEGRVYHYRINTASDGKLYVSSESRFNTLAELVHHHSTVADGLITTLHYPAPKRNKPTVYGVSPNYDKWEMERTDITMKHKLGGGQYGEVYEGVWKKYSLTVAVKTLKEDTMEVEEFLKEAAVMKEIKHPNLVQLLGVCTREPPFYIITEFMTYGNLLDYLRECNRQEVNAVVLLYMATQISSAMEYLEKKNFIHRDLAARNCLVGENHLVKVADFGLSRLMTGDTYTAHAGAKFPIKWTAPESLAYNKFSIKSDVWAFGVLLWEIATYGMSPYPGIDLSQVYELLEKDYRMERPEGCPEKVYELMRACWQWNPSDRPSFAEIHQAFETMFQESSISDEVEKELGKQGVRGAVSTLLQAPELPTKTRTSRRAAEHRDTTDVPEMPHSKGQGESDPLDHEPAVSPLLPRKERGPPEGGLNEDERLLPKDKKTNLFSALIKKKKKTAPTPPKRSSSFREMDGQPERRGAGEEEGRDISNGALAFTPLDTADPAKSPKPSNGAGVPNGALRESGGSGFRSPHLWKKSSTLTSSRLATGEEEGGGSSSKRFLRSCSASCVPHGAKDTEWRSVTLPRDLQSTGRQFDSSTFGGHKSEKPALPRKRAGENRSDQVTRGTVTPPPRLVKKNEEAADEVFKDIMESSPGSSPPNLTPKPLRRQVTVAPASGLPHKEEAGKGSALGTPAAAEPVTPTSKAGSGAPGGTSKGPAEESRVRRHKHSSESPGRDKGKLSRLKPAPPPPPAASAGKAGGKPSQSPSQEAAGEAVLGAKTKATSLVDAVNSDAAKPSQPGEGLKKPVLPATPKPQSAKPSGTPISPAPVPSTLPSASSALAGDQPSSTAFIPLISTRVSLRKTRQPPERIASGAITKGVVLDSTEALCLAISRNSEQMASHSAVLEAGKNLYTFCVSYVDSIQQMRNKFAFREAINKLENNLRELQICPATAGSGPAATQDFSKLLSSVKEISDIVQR

DMPK(h) = target: T4, DMPK(h) (human, UniProt Q09013 1-629, limits assumed)
T4 sequence (looked up): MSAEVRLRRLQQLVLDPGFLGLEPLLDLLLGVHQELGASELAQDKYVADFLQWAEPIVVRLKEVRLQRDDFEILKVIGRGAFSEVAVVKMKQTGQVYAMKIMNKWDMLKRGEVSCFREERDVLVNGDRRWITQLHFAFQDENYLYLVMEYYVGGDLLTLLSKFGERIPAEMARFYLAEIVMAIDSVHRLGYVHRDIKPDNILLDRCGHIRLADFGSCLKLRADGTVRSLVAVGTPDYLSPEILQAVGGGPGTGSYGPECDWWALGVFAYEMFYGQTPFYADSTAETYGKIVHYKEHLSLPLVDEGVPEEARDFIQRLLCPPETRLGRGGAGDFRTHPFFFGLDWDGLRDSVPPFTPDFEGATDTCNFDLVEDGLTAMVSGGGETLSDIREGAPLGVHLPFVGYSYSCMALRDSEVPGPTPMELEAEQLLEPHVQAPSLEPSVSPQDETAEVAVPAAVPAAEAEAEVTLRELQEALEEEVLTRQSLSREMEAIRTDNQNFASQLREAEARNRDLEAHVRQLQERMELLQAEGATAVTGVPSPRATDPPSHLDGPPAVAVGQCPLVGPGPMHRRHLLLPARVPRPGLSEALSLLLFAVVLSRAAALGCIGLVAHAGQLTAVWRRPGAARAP

KDR(h) = KDR(h) (human, UniProt P35968 790-1356, limits assumed)
Sequence of KDR(h) (P35968 790-1356 limits assumed): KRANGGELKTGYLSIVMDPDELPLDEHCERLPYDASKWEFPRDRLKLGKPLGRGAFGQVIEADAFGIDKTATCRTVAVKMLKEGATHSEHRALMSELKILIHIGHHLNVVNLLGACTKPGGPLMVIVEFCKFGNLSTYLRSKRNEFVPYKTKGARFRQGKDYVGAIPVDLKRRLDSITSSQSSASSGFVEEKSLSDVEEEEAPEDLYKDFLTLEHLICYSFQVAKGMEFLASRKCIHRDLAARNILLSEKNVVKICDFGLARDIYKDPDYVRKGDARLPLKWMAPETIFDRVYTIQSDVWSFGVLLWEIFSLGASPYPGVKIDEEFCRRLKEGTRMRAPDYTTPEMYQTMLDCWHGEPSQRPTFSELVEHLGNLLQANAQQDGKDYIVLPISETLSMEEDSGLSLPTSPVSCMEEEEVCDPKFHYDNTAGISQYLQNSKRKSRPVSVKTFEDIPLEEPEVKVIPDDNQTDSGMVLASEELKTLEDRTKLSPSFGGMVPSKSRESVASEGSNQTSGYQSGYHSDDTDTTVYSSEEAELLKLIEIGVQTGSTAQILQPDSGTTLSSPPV
Further: test concentration or dose not given here.

Sequence of HIPK2(h) (Q9H2X6 165-564 limits assumed): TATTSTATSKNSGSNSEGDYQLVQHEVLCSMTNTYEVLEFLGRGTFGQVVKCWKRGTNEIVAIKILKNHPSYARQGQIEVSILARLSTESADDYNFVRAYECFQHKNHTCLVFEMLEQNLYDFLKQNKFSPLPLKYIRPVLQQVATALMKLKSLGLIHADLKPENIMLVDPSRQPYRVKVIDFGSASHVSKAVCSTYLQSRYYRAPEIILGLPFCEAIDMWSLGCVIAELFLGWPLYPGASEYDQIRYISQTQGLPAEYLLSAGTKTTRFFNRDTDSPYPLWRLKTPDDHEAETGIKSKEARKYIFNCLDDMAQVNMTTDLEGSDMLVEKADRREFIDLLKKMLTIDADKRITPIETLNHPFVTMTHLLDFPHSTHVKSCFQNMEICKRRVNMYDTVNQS

B1: MMI-0300 (peptide)
peptide: FAKLAARLYRKALARQLGVAA
For B1, the “% activity” value (HIPK2(h)) was 73%, the “% activity” value (BrSK2(h)) was 83% and the “% activity” value (Itk(h)) was 77%. The “% activity” value (Tec(h)activated) was 56%, the “% activity” value (Ab1(h)) was 69% and the “% activity” value (DMPK(h)) was 59%. For the same binder, the “% activity” value (KDR(h)) was 101%.

B2: MMI-0400 (peptide)
peptide: KAFAKLAARLYRKALARQLGVAA
B2 was tested, and the “% activity” value (HIPK2(h)) was 90%, the “% activity” value (BrSK2(h)) was 86% and the “% activity” value (Itk(h)) was 63%. The “% activity” value (Tec(h)activated) was 29%, the “% activity” value (Ab1(h)) was 84% and the “% activity” value (DMPK(h)) was 54%. For the same binder, the “% activity” value (KDR(h)) was 94%.
